The experiment concerns the target m33 T cell receptor (high-affinity CDR3α mutant of 2C, displayed on 58−/− T cell hybridoma cells) (mouse). The experiment can be described thus: flow cytometry on cells.

The substance “SIYRYYGL/K^b tetramer (biotinylated SIY/K^b monomers on streptavidin:phycoerythrin) (from UniProt P01887 21-119) (peptide-MHC)” yielded a percent of cells positive for tetramer of 84%.

For the origin of these results see paper PMC2680719.
